According to PMC5505973:

Tested on: Tal7 (His-Tal7) (Xanthomonas oryzae pv. oryzicola RS105)
Assay: MST

Os12g42970 promoter MST fragment was tested, and the Kd was 2930 nM.

Substance Os09g29100 promoter MST fragment has a Kd of 2260 nM.
